Where a chain is given by its changes, count along the chain named.
Molecular target: T1, CD81 (UniProt P60033 1-236, limits assumed)
T1 construct: whole, on cells; also called CD81 receptor
T1 sequence (looked up): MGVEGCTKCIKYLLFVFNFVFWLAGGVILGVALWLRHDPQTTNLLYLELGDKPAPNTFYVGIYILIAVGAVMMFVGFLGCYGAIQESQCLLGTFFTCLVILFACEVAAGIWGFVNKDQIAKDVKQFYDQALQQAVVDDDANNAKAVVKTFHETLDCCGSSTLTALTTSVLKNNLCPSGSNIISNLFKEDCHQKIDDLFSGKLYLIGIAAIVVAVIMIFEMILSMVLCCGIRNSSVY
Assay: cell ELISA;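 further: antibody binding to HuH7 cells expressing CD81 versus a CD81-negative HuH7 control line, bound antibody detected by secondary reagent, absorbance at 450 nm with 620 nm reference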

B1: CD81K13 HC 02-hVH_1_3 / LC 1c-hVK_3_15 (antibody, V domains shown)
VH: QVQLVQSGAEVKKPGASVKVSCKASGYTFTDSYMHWVRQAPGQRLEWMGRIDTGNGNTKYSQKFQGRVTITTDTSASTAYMELSSLRSEDTAVYYCAPYGYGFHSWGQGTLVTVSS
VL: EIVMTQSPATLSVSPGERATLSCRASENIYRTLAWYQQKPGQAPRLLIYGATTLADGIPARFSGSGSGTEFTLTISSLQSEDFGVYYCQHFWGTPWTFGQGTKVEIK
notes: human constant region
Work on B1 yielded an ELISA data of 0.283.

B2: CD81K13 HC 02-hVH_1_3 / LC 5b-hVK_1_39 (antibody, V domains shown)
VH: B1 VH
VL: DIQMTQSPSSLSASVGDRVTITCRASENIYRTLAWYQQKPGKAPKLLIYGATTLADGVPSRFSGSGSGTDFTLTISSLQPEDFATYYCQHFWGTPWTFGQGTKVEIK
notes: human constant region
For B2, the ELISA data was 0.29.

B3: CD81K13 HC 02-hVH_1_3 / LC 03-hVK_1_9 (antibody, V domains shown)
VH: B1 VH
VL: B2 VL with M4L, S10F, G50A, D56S, D70E
notes: human constant region
In the case of B3, the ELISA data is reported as 0.13.

B4: CD81K13 HC 02-hVH_1_3 / LC 06-hVK_1_39 (antibody, V domains shown)
VH: B1 VH
VL: B2 VL with G50A, D56S, A84G
notes: human constant region
B4 was tested, and the ELISA data was 0.251.

B5: CD81K13 HC 02-hVH_1_3 / LC 05-hVK_1_39 (antibody, V domains shown)
VH: B1 VH
VL: B2 VL with G50A, D56S
notes: human constant region
Work on B5 yielded an ELISA data of 0.161.

B6: CD81K13 HC 02-hVH_1_3 / LC 5b-hVK_1_39-GA (antibody, V domains shown)
VH: B1 VH
VL: B2 VL
notes: human constant region
Work on B6 yielded an ELISA data of 0.247.

B7: CD81K13 HC 05-hVH_1_69 / LC 1c-hVK_3_15 (antibody, V domains shown)
VH: QVQLVQSGAEVKKPGSSVKVSCKASGFNFKDSYLHWVRQAPGQGLEWMGRIDTGNGNVKFDPKFQGRVTITTDESTSTAYMELSSLRSEDTAVYYCVPYGYGFHSWGQGTLVTVSS
VL: B1 VL
notes: human constant region
B7 gave an ELISA data of 0.767.

B8: CD81K13 HC 02-hVH_1_3 / LC 04-hVK_1_9 (antibody, V domains shown)
VH: B1 VH
VL: B2 VL with M4L, S10F, G50A, D56S, D70E, A84G
notes: human constant region
B8 was tested, and the ELISA data was 0.163.

B9: CD81K13 HC 07-hVH_1_3 / LC 1b-hVK_3_15 (antibody, V domains shown)
VH: B7 VH with S16A, F27Y, N28T, E74T, T76A, V97A
VL: B1 VL with G84A
notes: human constant region
B9 gave an ELISA data of 0.367.

B10: CD81K13 HC 5b-hVH_1_69-GA / LC 1c-hVK_3_15 (antibody, V domains shown)
VH: B7 VH with V11L, K12V
VL: B1 VL
notes: human constant region
Binder B10 has an ELISA data of 0.794.

B11: CD81K13 HC 05-hVH_1_69 / LC 1b-hVK_3_15 (antibody, V domains shown)
VH: B7 VH
VL: B1 VL with G84A
notes: human constant region
Binder B11 has an ELISA data of 0.624.

B12: CD81K13 HC 07-hVH_1_3 / LC 01-hVK_3_15 (antibody, V domains shown)
VH: B7 VH with S16A, F27Y, N28T, E74T, T76A, V97A
VL: B1 VL with L54R, D56T
notes: human constant region
B12 showed an ELISA data of 0.459.

B13: CD81K13 HC 06-hVH_1_3 / LC 1b-hVK_3_15 (antibody, V domains shown)
VH: B1 VH with T30K, M34L, T58V, Y60F, S61D, Q62P
VL: B1 VL with G84A
notes: human constant region
Work on B13 yielded an ELISA data of 0.394.

B14: CD81K13 HC 5b-hVH_1_69-GA / LC 01-hVK_3_15 (antibody, V domains shown)
VH: B7 VH with V11L, K12V
VL: B1 VL with L54R, D56T
notes: human constant region
B14 gave an ELISA data of 0.739.

B15: CD81K13 HC 06-hVH_1_3 / LC 1c-hVK_3_15 (antibody, V domains shown)
VH: B1 VH with T30K, M34L, T58V, Y60F, S61D, Q62P
VL: B1 VL
notes: human constant region
In the case of B15, the ELISA data is reported as 0.34.

B16: CD81K13 HC 06-hVH_1_3 / LC 01-hVK_3_15 (antibody, V domains shown)
VH: B1 VH with T30K, M34L, T58V, Y60F, S61D, Q62P
VL: B1 VL with L54R, D56T
notes: human constant region
Binder B16 has an ELISA data of 0.547.

B17: CD81K13 HC 5b-hVH_1_69 / LC 01-hVK_3_15 (antibody, V domains shown)
VH: B7 VH with V11L, K12V
VL: B1 VL with L54R, D56T
notes: human constant region
B17 gave an ELISA data of 0.749.

B18: CD81K13 HC 5b-hVH_1_69-GA / LC 1b-hVK_3_15 (antibody, V domains shown)
VH: B7 VH with V11L, K12V
VL: B1 VL with G84A
notes: human constant region
B18 showed an ELISA data of 0.648.

B19: CD81K13 HC 05-hVH_1_69 / LC 01-hVK_3_15 (antibody, V domains shown)
VH: B7 VH
VL: B1 VL with L54R, D56T
notes: human constant region
B19 gave an ELISA data of 0.684.

B20: CD81K13 HC 5b-hVH_1_69 / LC 1b-hVK_3_15 (antibody, V domains shown)
VH: B7 VH with V11L, K12V
VL: B1 VL with G84A
notes: human constant region
With B20 the ELISA data was 0.646.

B21: CD81K13 HC 03-hVH_1_69 / LC 01-hVK_3_15 (antibody, V domains shown)
VH: B7 VH with F60Y, D61A, P62Q, T72A, V97A
VL: B1 VL with L54R, D56T
notes: human constant region
For B21, the ELISA data was 0.649.

B22: CD81K13 HC 07-hVH_1_3 / LC 1c-hVK_3_15 (antibody, V domains shown)
VH: B7 VH with S16A, F27Y, N28T, E74T, T76A, V97A
VL: B1 VL
notes: human constant region
Binder B22 has an ELISA data of 0.337.

B23: CD81K13 HC 03-hVH_1_69 / LC 1c-hVK_3_15 (antibody, V domains shown)
VH: B7 VH with F60Y, D61A, P62Q, T72A, V97A
VL: B1 VL
notes: human constant region
B23 gave an ELISA data of 0.252.

B24: CD81K13 HC 5b-hVH_1_69 / LC 1c-hVK_3_15 (antibody, V domains shown)
VH: B7 VH with V11L, K12V
VL: B1 VL
notes: human constant region
Work on B24 yielded an ELISA data of 0.701.

B25: CD81K13 HC 03-hVH_1_69 / LC 1b-hVK_3_15 (antibody, V domains shown)
VH: B7 VH with F60Y, D61A, P62Q, T72A, V97A
VL: B1 VL with G84A
notes: human constant region
B25 was tested, and the ELISA data was 0.403.

B26: CD81K13 HC 05-hVH_1_69 / LC CD81K13 (antibody, V domains shown)
VH: B7 VH
VL: DIQMTQSPASLSVSVGETVTITCRASENIYRTLAWYLQKQGKSPQLLVYGATTLADGVPSRFSGSGSGTQYYLKINSLQSEDFGTYHCQHFWGTPWTFGGGTKVEIK
notes: human constant region
With B26 the ELISA data was 0.94.

B27: CD81K13 HC 05-hVH_1_69 / LC 05-hVK_1_39 (antibody, V domains shown)
VH: B7 VH
VL: B2 VL with G50A, D56S
notes: human constant region
For B27, the ELISA data was 0.91.

B28: CD81K13 HC 03-hVH_1_69 / LC 04-hVK_1_9 (antibody, V domains shown)
VH: B7 VH with F60Y, D61A, P62Q, T72A, V97A
VL: B2 VL with M4L, S10F, G50A, D56S, D70E, A84G
notes: human constant region
B28 showed an ELISA data of 0.188.

B29: CD81K13 HC 05-hVH_1_69 / LC 04-hVK_1_9 (antibody, V domains shown)
VH: B7 VH
VL: B2 VL with M4L, S10F, G50A, D56S, D70E, A84G
notes: human constant region
For B29, the ELISA data was 0.685.

B30: CD81K13 HC 5b-hVH_1_69-GA / LC CD81K13 (antibody, V domains shown)
VH: B7 VH with V11L, K12V
VL: B26 VL
notes: human constant region
B30 gave an ELISA data of 0.935.

B31: CD81K13 HC 05-hVH_1_69 / LC 03-hVK_1_9 (antibody, V domains shown)
VH: B7 VH
VL: B2 VL with M4L, S10F, G50A, D56S, D70E
notes: human constant region
For B31, the ELISA data was 0.787.

B32: CD81K13 HC 05-hVH_1_69 / LC 5b-hVK_1_39-GA (antibody, V domains shown)
VH: B7 VH
VL: B2 VL
notes: human constant region
B32 showed an ELISA data of 0.551.

B33: CD81K13 HC 03-hVH_1_69 / LC CD81K13 (antibody, V domains shown)
VH: B7 VH with F60Y, D61A, P62Q, T72A, V97A
VL: B26 VL
notes: human constant region
For B33, the ELISA data was 0.787.

B34: CD81K13 HC 05-hVH_1_69 / LC 5b-hVK_1_39 (antibody, V domains shown)
VH: B7 VH
VL: B2 VL
notes: human constant region
In the case of B34, the ELISA data is reported as 0.692.

B35: CD81K13 HC 05-hVH_1_69 / LC 06-hVK_1_39 (antibody, V domains shown)
VH: B7 VH
VL: B2 VL with G50A, D56S, A84G
notes: human constant region
In the case of B35, the ELISA data is reported as 0.603.

B36: CD81K13 HC 06-hVH_1_3 / LC CD81K13 (antibody, V domains shown)
VH: B1 VH with T30K, M34L, T58V, Y60F, S61D, Q62P
VL: B26 VL
notes: human constant region
Binder B36 has an ELISA data of 0.447.

B37: CD81K13 HC 03-hVH_1_69 / LC 03-hVK_1_9 (antibody, V domains shown)
VH: B7 VH with F60Y, D61A, P62Q, T72A, V97A
VL: B2 VL with M4L, S10F, G50A, D56S, D70E
notes: human constant region
In the case of B37, the ELISA data is reported as 0.208.

B38: CD81K13 HC 03-hVH_1_69 / LC 5b-hVK_1_39 (antibody, V domains shown)
VH: B7 VH with F60Y, D61A, P62Q, T72A, V97A
VL: B2 VL
notes: human constant region
B38 showed an ELISA data of 0.546.

B39: CD81K13 HC 03-hVH_1_69 / LC 05-hVK_1_39 (antibody, V domains shown)
VH: B7 VH with F60Y, D61A, P62Q, T72A, V97A
VL: B2 VL with G50A, D56S
notes: human constant region
Work on B39 yielded an ELISA data of 0.525.

B40: CD81K13 HC 07-hVH_1_3 / LC CD81K13 (antibody, V domains shown)
VH: B7 VH with S16A, F27Y, N28T, E74T, T76A, V97A
VL: B26 VL
notes: human constant region
Binder B40 has an ELISA data of 0.572.

B41: CD81K13 HC 03-hVH_1_69 / LC 5b-hVK_1_39-GA (antibody, V domains shown)
VH: B7 VH with F60Y, D61A, P62Q, T72A, V97A
VL: B2 VL
notes: human constant region
Binder B41 has an ELISA data of 0.552.

B42: CD81K13 HC 03-hVH_1_69 / LC 06-hVK_1_39 (antibody, V domains shown)
VH: B7 VH with F60Y, D61A, P62Q, T72A, V97A
VL: B2 VL with G50A, D56S, A84G
notes: human constant region
In the case of B42, the ELISA data is reported as 0.484.

B43: CD81K13 HC 5b-hVH_1_69 / LC CD81K13 (antibody, V domains shown)
VH: B7 VH with V11L, K12V
VL: B26 VL
notes: human constant region
B43 showed an ELISA data of 0.813.
